Tests used:
Experiment in all cases: competition ELISA, antibody preincubated with target, AMH-coated plate
[1] = molecular target: T1, AMH truncated antigen 21-35 (human)
T1 peptide: GTEALRAEEPAVGTS
Procedure: (§1) 1. AMH antigen was diluted with carbonic acid buffer (20 mmol/L CB, pH 9.6) and then coated on a polyvinyl chloride plate. In the pretreatment, the antibody purified by the protein A column and the synthesized AMH truncated antigen sequences (see Table 3 for each synthetic sequence) were subjected to proportion incubation (100 ng/ml antibody: 50 ug/ml truncated antigen) for 30 minutes, that were test samples; the control sample was 100 ng/ml antibody: PBS, incubation for 30 minutes, and then the test samples after incubation and the control sample were added to AMH antigen plate and incubated for 30 minutes, the plate was washed for 5 times, added with GAM-HRP (1/5000 dilution) and incubated for 30 minutes, the plate was washed for 5 times, and the substrate was added and incubated for 15 minutes. The values under wavelength of 450/620 were read by microplate reader, and the detected OD values were finally calculated and analyzed. The calculation formula was: (control sample OD value−test sample OD value)/control sample OD value, and the criterion for determination was as follows: more than 90%, which indicated a good competitive effect, showing that the antibody should recognize the epitope.

[2] = molecular target: T2, AMH truncated antigen 31-45 (human)
T2 peptide: AVGTSGLIFREDLDW
Procedure: as §1

[3] = molecular target: T3, AMH truncated antigen 51-65 (human)
T3 peptide: QEPLCLVALGGDSNG
Procedure: as §1

[4] = molecular target: T4, AMH truncated antigen 71-85 (human)
T4 peptide: RVVGALSAYEQAFLG
Procedure: as §1

[5] = molecular target: T5, AMH truncated antigen 31-41 (human)
T5 peptide: AVGTSGLIFRE
Procedure: as §1

[6] = molecular target: T6, AMH truncated antigen 31-42 (human)
T6 peptide: AVGTSGLIFRED
Procedure: as §1

[7] = molecular target: T7, AMH truncated antigen 31-43 (human)
T7 peptide: AVGTSGLIFREDL
Procedure: as §1

[8] = molecular target: T8, AMH truncated antigen 32-41 (human)
T8 peptide: VGTSGLIFRE
Procedure: as §1

[9] = molecular target: T9, AMH truncated antigen 33-41 (human)
T9 peptide: GTSGLIFRE
Procedure: as §1

[10] = molecular target: T10, AMH truncated antigen 34-41 (human)
T10 peptide: TSGLIFRE
Procedure: as §1

[11] = molecular target: T11, AMH truncated antigen 34-45 (human)
T11 peptide: TSGLIFREDLDW
Procedure: as §1

[12] = molecular target: T12, AMH truncated antigen 35-45 (human)
T12 peptide: SGLIFREDLDW
Procedure: as §1

[13] = molecular target: T13, AMH truncated antigen 36-45 (human)
T13 peptide: GLIFREDLDW
Procedure: as §1

[14] = molecular target: T14, AMH truncated antigen 36-47 (human)
T14 construct: also called human AMH36-47; AMH3647-27 (Human)
T14 peptide: GLIFREDLDWPP
Procedure: as §1

[15] = molecular target: T15, AMH truncated antigen 37-44 (human)
T15 construct: Printed with a blank (LIFR EDLD)
T15 peptide: LIFREDLD
Procedure: as §1

[16] = molecular target: T16, AMH truncated antigen 37-45 (human)
T16 peptide: LIFREDLDW
Procedure: as §1

[17] = molecular target: T17, AMH truncated antigen 38-45 (human)
T17 peptide: IFREDLDW
Procedure: as §1

[18] = molecular target: T18, AMH truncated antigen 40-45 (human)
T18 peptide: REDLDW
Procedure: as §1

[19] = molecular target: T19, AMH truncated antigen 40-46 (human)
T19 peptide: REDLDWP
Procedure: as §1

[20] = molecular target: T20, AMH truncated antigen 40-47 (human)
T20 peptide: REDLDWPP
Procedure: as §1

[21] = molecular target: T21, AMH truncated antigen 41-45 (human)
T21 peptide: EDLDW
Procedure: as §1

[22] = molecular target: T22, AMH truncated antigen 41-46 (human)
T22 peptide: EDLDWP
Procedure: as §1

[23] = molecular target: T23, AMH truncated antigen 41-48 (human)
T23 peptide: EDLDWPPG
Procedure: as §1

[24] = molecular target: T24, AMH truncated antigen 41-49 (human)
T24 peptide: EDLDWPPGS
Procedure: as §1

[25] = molecular target: T25, AMH truncated antigen 42-46 (human)
T25 peptide: DLDWP
Procedure: as §1

[26] = molecular target: T26, AMH truncated antigen 42-47 (human)
T26 peptide: DLDWPP
Procedure: as §1

[27] = molecular target: T27, AMH truncated antigen 42-48 (human)
T27 peptide: DLDWPPG
Procedure: as §1

[28] = molecular target: T28, AMH truncated antigen 42-49 (human)
T28 peptide: DLDWPPGS
Procedure: as §1

[29] = molecular target: T29, AMH truncated antigen 43-50 (human)
T29 peptide: LDWPPGSP
Procedure: as §1

[30] = molecular target: T30, AMH truncated antigen 43-51 (human)
T30 peptide: LDWPPGSPQ
Procedure: as §1

B1: monoclonal antibody C9F2-2 (antibody, V domains shown)
VH: EVQLVESGGGLVKPGGSLKLSCAASGFAFSTYDMSWVRQTPEKRLEWVAYISPGGGATYYPDTVKGRFTISRDNAKNTLYLQMTSLKSEDTAMYYCAGRRDYYGMDYWGQGTSVTVSS
VL: DVVMTQTPLSLPVSLGDQASISCRSSQSLVHSNGNTYLHWYLQKPGQSPKLLIYKVSNRFSGVPDRFSGSGSGTDFTLKISRVEAEDLGVYFCSQSTHVPWTFGGGTKLEIK
notes: Mouse hybridoma antibody purified from ascites; the tie is indirect; also called hybridoma CCTCC NO: C2018183
percent inhibition [1]: 10% | percent inhibition [2]: 90% | percent inhibition [3]: 9% | percent inhibition [4]: 21% | percent inhibition [5]: 10% | percent inhibition [6]: 16% | percent inhibition [7]: 25% | percent inhibition [8]: 9% | percent inhibition [9]: 9% | percent inhibition [10]: 3% | percent inhibition [11]: 98% | percent inhibition [12]: 97% | percent inhibition [13]: 94% | percent inhibition [14]: 100% | percent inhibition [15]: 24% | percent inhibition [16]: 91% | percent inhibition [17]: 92% | percent inhibition [18]: -14% | percent inhibition [19]: -2% | percent inhibition [20]: -19% | percent inhibition [21]: 15% | percent inhibition [22]: 15% | percent inhibition [23]: -1% | percent inhibition [24]: 3% | percent inhibition [25]: -10% | percent inhibition [26]: 6% | percent inhibition [27]: 2% | percent inhibition [28]: -8% | percent inhibition [29]: 17% | percent inhibition [30]: -10%

Source: US20220146515A1 (XIAMEN INNODX BIOTECH, published 2022)
